The values below come from patent US20050048603A1 (priority 2001, published 2005).

Numbering of substitutions follows the chain as printed.

In one data set the target is T1, mycoAC204-443R376A (Mycobacterium tuberculosis, UniProt P9WQ35 204-443).
T1 sequence: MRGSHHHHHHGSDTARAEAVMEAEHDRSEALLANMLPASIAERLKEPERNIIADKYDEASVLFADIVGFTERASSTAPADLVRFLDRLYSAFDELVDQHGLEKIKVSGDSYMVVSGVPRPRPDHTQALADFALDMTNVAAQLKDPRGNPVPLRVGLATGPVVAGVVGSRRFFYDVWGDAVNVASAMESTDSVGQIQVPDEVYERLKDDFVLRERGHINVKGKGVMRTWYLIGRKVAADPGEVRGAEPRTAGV

B1: mycoAC204-443 (protein)
chain: T1 sequence with A185R
For B1, the “specific adenylyl cyclase activity against protein concentration” value in the data set with P9WQ35 is given as “From 50 to 300 nM it increased five-fold”.

B2: mycoAC204-443D300A (enzyme)
chain: T1 sequence with D109A, A185R
Take B2: binding with mycoAC204-443R376A was characterised by a dissociation constant (Kd) of 2000 nM.

B3: mycoAC204-443D256A (enzyme)
chain: T1 sequence with D65A, A185R
B3 came in with a Kd with mycoAC204-443R376A of 2000 nM.

Usually Kd stands for the constant that tells how readily two partners part at equilibrium. The low end stands for a tighter complex, the high end for a looser complex.
